Test results: patent US20150183820A1
Where two headings read alike, the source gives them in different places.

Experiments:
[1] = biological target: gamma-globulin derived from human serum (Wako Pharmaceuticals); experiment: pH gradient affinity chromatography, commercial comparison column
[2] = biological target: human IgG3; experiment: pH gradient affinity chromatography, Epoxy-activated Sepharose 6B immobilized column
[3] = biological target: IgG1 type humanized monoclonal antibody; experiment: SPR, IgG1 antibody amine-coupled on CM-5 chip (5000 RU), pH 7.4, 25 C, 1:1 Langmuir
[4] = biological target: IgG1 type humanized monoclonal antibody
[5] = biological target: IgG1 type humanized monoclonal antibody; experiment: SPR, IgG1 antibody amine-coupled on CM-5 chip, pH 7.4
[6] = biological target: IgG1 type humanized monoclonal antibody; experiment: pH gradient affinity chromatography, SulfoLink immobilized column
[7] = biological target: human IgG3; experiment: as above
[8] = biological target: gamma-globulin derived from human serum (Wako Pharmaceuticals); experiment: pH gradient affinity chromatography, DSC-activated immobilized column
[9] = biological target: Fc region of human immunoglobulin (human); experiment: SPR, Fc on CM4 chip, pH 4.5, 1:1 Langmuir
[10] = biological target: Fc region of human immunoglobulin (human); experiment: SPR, Fc on CM5 chip, pH 7.4, 1:1 Langmuir
[11] = biological target: Fc region of human immunoglobulin (human); experiment: SPR, Fc on CM5 chip, pH 7.4
[12] = biological target: Fc region of human immunoglobulin (human); experiment: SPR, Fc on CM4 chip, pH 4.5
[13] = biological target: IgG1 type humanized monoclonal antibody; experiment: pH gradient affinity chromatography, Epoxy-activated Sepharose 6B immobilized column
[14] = biological target: ChromPure Human IgG, Fc Fragment (human); experiment: stepwise pH affinity chromatography, binder immobilized on streptavidin column
[15] = biological target: human immunoglobulin IgG; experiment: SPR, binder on SA chip, 1 uM IgG, dissociation in 10 mM sodium acetate pH 4.0
[16] = biological target: human immunoglobulin IgG; experiment: SPR, binder on SA chip, dissociation at pH 4.0, 1:1 Langmuir
[17] = biological target: IgG1 type humanized monoclonal antibody; experiment: pH gradient affinity chromatography, binder immobilized on streptavidin column
[18] = biological target: human immunoglobulin IgG; experiment: SPR, binder on SA chip, dissociation at pH 4.0

## Sepharose 4 Fast Flow column (GE Healthcare)
[1]
  elution peak pH: 3.2 pH

B1: CGB19H-3D (designed binder)
chain: MAYYDPETGTWYSGGRDTYKLILNGKTLKGETTTEAVDAATAEKVFKHYANEHGVHGHWTYDPETKTFTVTERPEVIDASELTPAVDTYKLILNGKTLKGETTTEAVDAATAEKVFKHYANEHGVHGHWTYDPETKTFTVTERPEVIDASELTPAVDTYKLILNGKTLKGETTTEAVDAATAEKVFKHYANEHGVHGHWTYDPETKTFTVTERPEVIDASELTPAVGGGGCHHHHHH
[2]
  elution peak pH: 4.9 pH
[3]
  Kd: 0.1 nM
[4]
  elution peak pH: 4.3 pH
[5]
  avidity improvement against the single domain-type M-PG19: 190 fold
  difference of the dissociation rate constants against M-PG19: 370 times
[6]
  elution peak pH: 4.3 pH
[7]
  elution peak pH: 5.2 pH
[8]
  elution peak pH: 3.6 pH

B2: M-PG07 (designed binder)
chain: MDTYKLILNGKTLKGETTTEAVDAATAEKVFKQYANEHGVDGEWTYDPETKTFTVTE
[9]
  Kd: 230 nM
[10]
  Kd: 290 nM

B3: M-PG19 (designed binder)
chain: MDTYKLILNGKTLKGETTTEAVDAATAEKVFKHYANEHGVHGHWTYDPETKTFTVTE
[3]
  Kd: 19 nM
[9]
  Kd: 1000 nM
[10]
  Kd: 43 nM
[11]
  avidity in the neutral region against M-PG01: 11 times
[12]
  affinity in the acidic region against M-PG01: 0.6 times

B4: CGB01H-3D (protein)
chain: MAYYDPETGTWYSGGRDTYKLILNGKTLKGETTTEAVDAATAEKVFKQYANDNGVDGEWTYDDATKTFTVTERPEVIDASELTPAVDTYKLILNGKTLKGETTTEAVDAATAEKVFKQYANDNGVDGEWTYDDATKTFTVTERPEVIDASELTPAVDTYKLILNGKTLKGETTTEAVDAATAEKVFKQYANDNGVDGEWTYDDATKTFTVTERPEVIDASELTPAVGGGGCHHHHHH
[13]
  elution peak pH: 3.3 pH
[2]
  elution peak pH: 3.4 pH

B5: OXADac-PG01 (protein)
chain: MGAGTPVTAPLAGTIWKVLASEGQTVAAGEVLLILEAMKMETEIRAAQAGTVRGIAVKAGDAVAVGDTLMTLAGSGSDLYDDDDKGIITSLYKKAGSAAAPFTDTYKLILNGKTLKGETTTEAVDAATAEKVFKQYANDNGVDGEWTYDDATKTFTVTE
[14]
  recovery ratio of antibody in step-wise pH chromatography at pH 4.0: 10%
[15]
  ratio of the remaining amount of antibody by SPR sensorgram at pH 4.0: 99%
[16]
  koff: 4.2e-05 s⁻¹
[17]
  value of the elution peak of antibody in pH-gradient chromatography: 3.18 pH

B6: OXADac-PG15 (designed binder)
chain: MGAGTPVTAPLAGTIWKVLASEGQTVAAGEVLLILEAMKMETEIRAAQAGTVRGIAVKAGDAVAVGDTLMTLAGSGSDLYDDDDKGIITSLYKKAGSAAAPFTDTYKLILNGKRLKGETTTEAVDAATAEKVFKQYANEHGVDGEWTYDPETKTFTVTE
[15]
  ratio of the remaining amount of antibody by SPR sensorgram at pH 4.0: 90%
[16]
  koff: 0.00044 s⁻¹

B7: OXADac-PG13 (designed binder)
chain: MGAGTPVTAPLAGTIWKVLASEGQTVAAGEVLLILEAMKMETEIRAAQAGTVRGIAVKAGDAVAVGDTLMTLAGSGSDLYDDDDKGIITSLYKKAGSAAAPFTDTYKLILNGKTLKGETTTEAVDAATAEKVFKQYANEHGVHGEWTYDPETKTFTVTE
[15]
  ratio of the remaining amount of antibody by SPR sensorgram at pH 4.0: 64%
[16]
  koff: 0.06 s⁻¹
[17]
  value of the elution peak of antibody in pH-gradient chromatography: 3.56 pH

B8: OXADac-PG07 (designed binder)
chain: MGAGTPVTAPLAGTIWKVLASEGQTVAAGEVLLILEAMKMETEIRAAQAGTVRGIAVKAGDAVAVGDTLMTLAGSGSDLYDDDDKGIITSLYKKAGSAAAPFTDTYKLILNGKTLKGETTTEAVDAATAEKVFKQYANEHGVDGEWTYDPETKTFTVTE
[15]
  ratio of the remaining amount of antibody by SPR sensorgram at pH 4.0: 93%
[16]
  koff: 0.00011 s⁻¹

B9: OXADac-PG14 (designed binder)
chain: MGAGTPVTAPLAGTIWKVLASEGQTVAAGEVLLILEAMKMETEIRAAQAGTVRGIAVKAGDAVAVGDTLMTLAGSGSDLYDDDDKGIITSLYKKAGSAAAPFTDTYKLILNGKTLKGETTTEAVDAATAEKVFKQYANEHGVDGHWTYDPETKTFTVTE
[15]
  ratio of the remaining amount of antibody by SPR sensorgram at pH 4.0: 71%
[16]
  koff: 0.04 s⁻¹

B10: OXADac-PG20 (designed binder)
chain: MGAGTPVTAPLAGTIWKVLASEGQTVAAGEVLLILEAMKMETEIRAAQAGTVRGIAVKAGDAVAVGDTLMTLAGSGSDLYDDDDKGIITSLYKKAGSAAAPFTDTYKLILNGKTLKGETTTEAVHAATAEKVFKHYANEHGVHGHWTYDPETKTFTVTE
[14]
  elution rate at pH 4 against the wild-type (OXADac-PG01): 7 times
  recovery ratio of antibody in step-wise pH chromatography at pH 4.0: 71%
[15]
  ratio of the remaining amount of antibody by SPR sensorgram at pH 4.0: 58%
[17]
  elution pH difference against the wild-type (OXADac-PG01): 1.1 pH points
  value of the elution peak of antibody in pH-gradient chromatography: 4.29 pH

B11: OXADac-PG17 (designed binder)
chain: MGAGTPVTAPLAGTIWKVLASEGQTVAAGEVLLILEAMKMETEIRAAQAGTVRGIAVKAGDAVAVGDTLMTLAGSGSDLYDDDDKGIITSLYKKAGSAAAPFTDTYKLILNGKRLKGETITEAVDAATAEKVFKQYANEHGVDGEWTYDPETKTFTVTE
[15]
  ratio of the remaining amount of antibody by SPR sensorgram at pH 4.0: 86%
[16]
  koff: 0.032 s⁻¹
[17]
  value of the elution peak of antibody in pH-gradient chromatography: 3.27 pH

B12: OXADac-PG19 (designed binder)
chain: MGAGTPVTAPLAGTIWKVLASEGQTVAAGEVLLILEAMKMETEIRAAQAGTVRGIAVKAGDAVAVGDTLMTLAGSGSDLYDDDDKGIITSLYKKAGSAAAPFTDTYKLILNGKTLKGETTTEAVDAATAEKVFKHYANEHGVHGHWTYDPETKTFTVTE
[14]
  elution rate at pH 4 against the wild-type (OXADac-PG01): 7 times
  recovery ratio of antibody in step-wise pH chromatography at pH 4.0: 88%
[15]
  ratio of the remaining amount of antibody by SPR sensorgram at pH 4.0: 38%
[16]
  koff: 0.27 s⁻¹
[17]
  value of the elution peak of antibody in pH-gradient chromatography: 4.04 pH
[18]
  increase of the dissociation rate constant against the wild-type (OXADac-PG01) (orders of magnitude): 3
  percent of adsorbed IgG dissociated at pH 4.0: 60%

B13: OXADac-PG16 (designed binder)
chain: MGAGTPVTAPLAGTIWKVLASEGQTVAAGEVLLILEAMKMETEIRAAQAGTVRGIAVKAGDAVAVGDTLMTLAGSGSDLYDDDDKGIITSLYKKAGSAAAPFTDTYKLILNGKTLKGETITEAVDAATAEKVFKQYANEHGVDGEWTYDPETKTFTVTE
[15]
  ratio of the remaining amount of antibody by SPR sensorgram at pH 4.0: 94%
[16]
  koff: 0.00013 s⁻¹
